B1: Azoarcus group I ribozyme (parent)
chain: GUGCCUUGCGCCGGGAAACCACGCAAGGGAUGGUGUCAAAUUCGGCGAAACCUAAGCGCCCGCCCGGGCGUAUGGCAACGCCGAGCCAAGCUUCGGCGCCUGCGCCGAUGAAGGUGUAGAGACUAGACGGCACCCACCUAAGGCAAACGCUAUGGUGAAGGCAUAGUCCAGGGAGUGGCGAAAGUCACACAAACCGG

Variants of: B1
Assay: reverse-splicing fitness (ratio to wild type); higher = more active; in vitro selection; Mg2+ level not given
How it was run: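 An in vitro group I ribozyme library with randomized positions was T7-transcribed and gel-purified. In triplicate, 10 pmol RNA in EPPS pH 7.5 was reacted with 50 pmoles of a 30-nt RNA substrate for 1 h at 37 °C across several added MgCl2 levels (1–48 mM), then stopped with EDTA. Products were reverse transcribed from a substrate-complementary primer, PCR-amplified and sequenced (HiSeq 4000). Fitness is a variant's read proportion after selection over that before, normalised to wild type.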

Variant | reverse-splicing fitness
A111G C150G C169U U176G | 0.00532
A111G C150G C169U U176A | 0.00683
A111G C150G C169U U176C | 0.0163
A111G C150G U176C | 0.166
A111G C150G U176G | 0.0168
A111G C150G U176A | 0.0982
A111U A120C A145C C150A C169G | 0.00677
A111U A120C A145C C150A C169U | 0.013
A111U A120C A145C C150A C169A | 0.00677
A111G A145G C150G C169A U176G | 0.00761
A111G A145G C150G C169A U176A | 0.0122
A111G A145G C150G C169A U176C | 0.0135
A111G A145C C150A C169A U176C | 0.00515
A111G A145C C150A C169A U176G | 0.00629
A111G A145C C150A C169A U176A | 0.0101
A111G C169G U176C | 0.0577
A111G C169G U176G | 0.00607
A111G C169G U176A | 0.0309
A111U A120C A145C C150U C169A U176C | 0.00539
A111U A120C A145C C150U C169A U176G | 0.00529
A111U A120C A145C C150U C169A U176A | 0.00887

Variant | reverse-splicing fitness
A111G A145G C150G C169U U176C | 0.0172
A111G A145G C150G C169U U176A | 0.011
A111G A145G C150G C169U U176G | 0.00609
A111G C150A C169U U176A | 0.0199
A111G C150A C169U U176C | 0.0264
A111G C150A C169U U176G | 0.00628
A111G A120U U176A | 0.432
A111G A120U U176G | 0.164
A111G A120U U176C | 0.445
A111G A145C C169U U176G | 0.00859
A111G A145C C169U U176C | 0.0591
A111G A145C C169U U176A | 0.0432
A111G C169G | 0.117
A111G C169U | 0.196
A111G C169A | 0.0602
A111G A145U C150U C169A U176C | 0.0144
A111G A145U C150U C169A U176G | 0.00557
A111G A145U C150U C169A U176A | 0.0142
A111G A145C C150G C169G U176C | 0.00562
A111G A145C C150G C169G U176G | 0.00435
A111G A145C C150G C169G U176A | 0.00824

Variant | reverse-splicing fitness
A111U A120C A145C C150A U176A | 0.0267
A111U A120C A145C C150A U176C | 0.0236
A111U A120C A145C C150A U176G | 0.00877
A111G A145U C150A C169A U176G | 0.00565
A111G A145U C150A C169A U176A | 0.0121
A111G A145U C150A C169A U176C | 0.00843
A111G C150A C169G U176G | 0.00767
A111G C150A C169G U176A | 0.0252
A111G C150A C169G U176C | 0.0218
A111G A145G C150U C169A U176A | 0.0193
A111G A145G C150U C169A U176C | 0.0252
A111G A145G C150U C169A U176G | 0.00505
A111G A145G C169G U176C | 0.0596
A111G A145G C169G U176A | 0.0326
A111G A145G C169G U176G | 0.00638
A111G C150G C169G U176C | 0.00463
A111G C150G C169G U176A | 0.00723
A111G C150G C169G U176G | 0.00539
A111U A120C A145C C150U C169G | 0.00744
A111U A120C A145C C150U C169A | 0.00788
A111U A120C A145C C150U C169U | 0.05

Variant | reverse-splicing fitness
A111G A120U C150U U176C | 0.249
A111G A120U C150U U176G | 0.0744
A111G A120U C150U U176A | 0.23
A111G A145C C150A C169U U176C | 0.0113
A111G A145C C150A C169U U176A | 0.0152
A111G A145C C150A C169U U176G | 0.00473
A111G A145G C150A C169U U176C | 0.0251
A111G A145G C150A C169U U176A | 0.0202
A111G A145G C150A C169U U176G | 0.00641
A111G A145G C150A U176A | 0.297
A111G A145G C150A U176C | 0.32
A111G A145G C150A U176G | 0.109
A111G C150A U176A | 0.275
A111G C150A U176G | 0.103
A111G C150A U176C | 0.264
A111G C150U C169U | 0.112
A111G C150U C169G | 0.0695
A111G C150U C169A | 0.0299
A111G A145U C150G C169A | 0.0108
A111G A145U C150G C169U | 0.0229
A111G A145U C150G C169G | 0.0152
